Data taken from article PMC2928128.

Experiments:
Test in all cases: SPR
[1] = target: GST-CDH23Δexon68ΔITEL (residues 847-1075)
[2] = target: GST-CDH23Δexon68 (cytoplasmic region of cadherin-23 lacking the exon68-encoded sequence, residues 847-1079)
[3] = target: GST-CDH23 + exon68ΔITEL (residues 847-1110)
[4] = target: GST-CDH23 + exon68 (cytoplasmic region of cadherin-23 including the exon68-encoded sequence, residues 847-1114)

Measured: Kd

Sequence of harmonin-a PDZ3 domain (residues 434-545) (domain or fragment) (Q9ES64 434-545): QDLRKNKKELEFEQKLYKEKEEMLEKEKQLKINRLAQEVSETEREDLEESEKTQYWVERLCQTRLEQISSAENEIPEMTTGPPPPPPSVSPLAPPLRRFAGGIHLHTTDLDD

harmonin-a PDZ3 domain (residues 434-545) (domain or fragment)
> 5 µM: [1] | [2] | [3] | [4]
